Measurements as given in the supplement of paper PMC12042874.
± gives the uncertainty stated by the source.

Assay: amyloid nucleation score (Sup35N fusion, yeast selection) (log enrichment); library NNK2; higher = more nucleation; inactive = no reads after selection
Outline: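 Random libraries were run with three technical output replicates. In each, psi-negative yeast expressing Sup35N fused to peptides of 20 random codons were induced 24 hours with 100 μM copper sulfate and grown 7 days at 30°C on medium lacking adenine and uracil, and input and output plasmid inserts were Illumina-sequenced. The nucleation score is the DiMSum log enrichment of output over input reads, centred on the mode score of non-aggregating sequences, and sequences under 100 input reads were excluded.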

| Substance | amyloid nucleation score |
| --- | --- |
| FFSGGIILHYSYPTWEWYRS | 2.92 ± 0.098 |
| FFSLSQQYSRSVIVYAKLHL | -0.98 ± 0.54 |
| FFTHTWLRRLKTLCVSFVPK | -0.516 ± 0.45 |
| FFTQGSCDTILRGLAFFTPR | -0.26 ± 1 |
| FFVDMSYPGSWNICYLTRFC | inactive |
| FFVESRSCSGYKMMKRCLDV | 1.54 ± 0.15 |
| FFVFGSWPHSSQGEGSLHKG | 0.387 ± 0.8 |
| FFVKTLFEGSLDVSSNSTFF | -0.304 ± 1.1 |
| FFYALGYRISDAMEIRRVGS | 2.35 ± 0.059 |
| FFYWL | inactive |
| FFYWLAMIW | -0.582 ± 0.63 |
| FGFLPSVIWEASDIGSDCLE | 0.072 ± 1.1 |
| FGFWSPATVNNVRALIKDCV | -0.409 ± 0.53 |
| FGIHHCLVCRLNLDFISGVD | -0.877 ± 0.62 |
| FGMRTGWREGGESCSTHERG | 1.14 ± 0.38 |
| FGMTRRETWNLSGCESITCT | 0.593 ± 0.45 |
| FGNGDKSGMIGINVNLLCRM | 5.73 ± 0.034 |
| FGPSRYTRSVFSVEQTSL | -0.114 ± 1 |
| FGYLVIKFVTYVRRRTNTYN | -0.113 ± 0.56 |
| FHAYTGCVWVTCQYGWRRDT | 1.9 ± 0.15 |
| FHCNPIS | -0.277 ± 1.1 |
| FHGAYIGASSVNDPSVSD | 5.322 ± 0.04 |

| Substance | amyloid nucleation score |
| --- | --- |
| FHHSHANSNVSRGIDIFGAV | -0.454 ± 0.32 |
| FHKKAMIRSFCPKEIDLGSM | inactive |
| FHLIALNCRWADDLFIGSGV | 0.374 ± 0.62 |
| FHMVIGWYICLICNGFYTFF | inactive |
| FHRPWTFLLLNLPTRGFFLR | inactive |
| FIDDSDFKYSYSAQFVCLID | 4.91 ± 0.1 |
| FIELMCWRSH | -0.315 ± 0.45 |
| FIERILAVSCFAYFVKPSTV | 5.44 ± 0.042 |
| FIFIMGIFERLH | -1.54 ± 1.1 |
| FIIIVLNNSVFRMKCALASI | -0.202 ± 1.1 |
| FISMLAISDIRHALDWHTSV | 0.979 ± 0.17 |
| FISSADLVTNMPRI | -0.8 ± 0.31 |
| FISTGRRQTFQTRTRSNLWV | 0.195 ± 0.37 |
| FIWSYVLSRGSV | -1.03 ± 0.31 |
| FKFLADVVPWFSSRWSHLMM | -0.867 ± 0.37 |
| FKGSDHCSKCRQVGEFVFST | -0.707 ± 1.1 |
| FKGSWHAFECEAYEYAWV | -0.018 ± 1.1 |
| FKKAMHKPKSWAFSEKGRTN | -1.27 ± 0.61 |
| FKRRCVDYNFSVVILLH | -2.03 ± 0.76 |
| FKSLVVSLCIPSDMNNLKCS | -0.474 ± 0.79 |
| FKWALFG | inactive |
| FLAILWLFMLGKVSGCVDKW | -0.155 ± 0.49 |

| Substance | amyloid nucleation score |
| --- | --- |
| FLCYKISSFVSICKQQEAHA | -0.064 ± 1.1 |
| FLFNVSGLYIGWSLVPTNLD | -0.33 ± 0.76 |
| FLFSIF | inactive |
| FLGWPGIRQCLLFVANNRGR | -0.448 ± 0.76 |
| FLIFINMGIRRIRHV | -1.37 ± 0.75 |
| FLIFVFLLYGPEMSDYCWTF | 0.14 ± 1 |
| FLINFAMIISIFRLSYHRPV | -0.599 ± 0.55 |
| FLKCNLTVDLIVMMKNIFSY | 1.02 ± 0.39 |
| FLLCIRLRVNNNVRNN | -0.763 ± 1.1 |
| FLLSV | inactive |
| FLLWIHF | 1.04 ± 0.44 |
| FLMEVSLTLSFLERSNVLKG | 3.8 ± 0.067 |
| FLNDI | inactive |
| FLRILFFGLGVMLQIRFFVH | -0.569 ± 0.37 |
| FLSCQTYRKNQADNADASSI | -0.076 ± 0.56 |
| FLSLLR | -1.05 ± 0.42 |
| FLTLATSTCGPACVW | 6.99 ± 0.07 |
| FLWVLIQANYLLTEMELSSG | -0.447 ± 1.1 |
| FLYLALCKI | 2.49 ± 0.14 |
| FLYPRYLVVMKHVLAGRCVA | inactive |
| FMEGTRHCGKYFSC | 0.938 ± 0.26 |
| FMFRQCSQFMMGYYLLNG | 0.313 ± 0.46 |

| Substance | amyloid nucleation score |
| --- | --- |
| FMGSSIGLSSCPLEDTYVLP | -0.403 ± 1 |
| FMKSNWIGTT | -0.909 ± 0.39 |
| FMLNYERL | -1.08 ± 0.42 |
| FMSICR | 1.47 ± 0.4 |
| FMWVNS | inactive |
| FNCHCSLSLVNHLASFTLSF | 1.8 ± 0.16 |
| FNCPRSAMIVNQRHRILSGV | -0.057 ± 0.43 |
| FNGSYASILKTSNRDTFDAL | 0.61 ± 0.15 |
| FNIERCLLISGMLCSPAVEL | -0.602 ± 1.1 |
| FNKNDNYYSAR | -0.753 ± 0.78 |
| FNLSGWLMSSIRNNFLVPG | -1.01 ± 0.61 |
| FNVFFAS | 5.97 ± 0.055 |
| FNVSVCCG | 0.607 ± 0.65 |
| FPCAMYTEWHVAVTVSICYG | -0.36 ± 0.76 |
| FPFKILSVKPH | 3.45 ± 0.14 |
| FPGPRRLSWFPGVQRVSMMI | -0.243 ± 0.79 |
| FPHLFKSKNPSRNMNSTSPG | inactive |
| FPLIDTYLEFMEPNGYWNSS | 0.516 ± 0.81 |
| FPLWSCSHTIINML | 5.858 ± 0.037 |
| FPTFVAMW | 0.35 ± 0.23 |
